Experimental data as given in patent US7906485B2, “Erythropoietin receptor peptide formulations and uses” (Affymax, Inc., priority 2005, dated 2011).
Each block holds one molecule with its values, some of them ahead of it. Bridge positions count the residues as written; N and C are the ends. Square brackets hold non-standard residues; d marks the D form. Ends that are not written are not given here. 1Nal = N[C@@H](Cc1cccc2ccccc12)C(=O)O; Sar = CNCC(=O)O

What was measured:
[1] = tested on: human, bone marrow derived CD34+ cells; experiment: C/BFU-e assay (erythroid colonies); type: cell-based
Description: EPO-R signaling stimulates the differentiation of bone marrow stem cells into proliferating red blood cell precursors. This assay measures the ability of test peptides to stimulate the proliferation and differentiation of red blood cell precursors from primary human bone marrow pluripotent stem cells.
For this assay, serial dilutions of test peptide are made in IMDM medium (Gibco) supplemented with 10% FBS (Hyclone). These serial dilutions, or positive control EPO peptide, are then added to methylcellulose to give a final volume of 1.5 mL. The methylcellulose and peptide mixture is then vortexed thoroughly. Aliquots (100,000 cells/mL) of human, bone marrow derived CD34+ cells (Poietics/Cambrex) are thawed. The thawed cells are gently added to 0.1 mL of 1 mg/ml DNAse (Stem Cells) in a 50 mL tube. Next, 40-50 mL IMDM medium is added gently to cells: the medium is added drop by drop along the side of the 50 mL tube for the first 10 mL, and then the remaining volume of medium is slowly dispensed along the side of the tube. The cells are then spun at 900 rpm for 20 min, and the media removed carefully by gentle aspiration. The cells are resuspended in 1 ml of IMDM medium and the cell density per mL is counted on hemacytometer slide (10 μL aliquot of cell suspension on slide, and cell density is the average count×10,000 cells/ml). The cells are then diluted in IMDM medium to a cell density of 15,000 cells/mL. A 100 μL of diluted cells is then added to each 1.5 mL methyl cellulose plus peptide sample (final cell concentration in assay media is 1000 cells/mL), and the mixture is vortexed. Allow the bubbles in the mixture to disappear, and then aspirate 1 mL using blunt-end needle. Add 0.25 mL aspirated mixture from each sample into each of 4 wells of a 24-well plate (Falcon brand). Incubate the plated mixtures at 37° C. under 5% CO2 in a humid incubator for 14 days. Score for the presence of erythroid colonies using a phase microscope (5×-10× objective, final magnification of 100×). The concentration of test peptide at which the number of formed colonies is 90% of maximum, relative to that observed with the EPO positive control, is recorded as the EC90 [See Table 2: C/BFU-e EC90].

[2] = Pharmacokinetic studies in rats; type: in vivo
[3] = Pharmacokinetic studies in dogs; type: in vivo
[4] = tested on: erythropoiesis; experiment: Pharmacology studies in animals (erythropoiesis); type: in vivo, mice, rats, dogs, rabbits and monkeys
[5] = tested on: erythropoiesis; experiment: Phase 1 study in normal healthy volunteers: pharmacodynamics; type: in vivo, human
Source text: (§1) Peptide I has been tested in […] in one Phase 1 study. This first-in-human study with Peptide I was a randomized, double-blind, placebo-controlled, single-dose, IV, escalating dose, safety and tolerability trial. The primary objectives of the study were to evaluate the safety and pharmacokinetics of Peptide I, and to establish a pharmacologically active dose (PAD). Cohorts of seven male volunteers were scheduled to receive single doses of Peptide I or placebo in a 5:2 ratio. Cohorts were to be added at increasing dose levels until a PAD, as determined by an increase in hemoglobin from baseline values, was observed, at which point the dose level identified as the PAD would be repeated in another cohort of volunteers.
(§2) The study was initiated in four cohorts were enrolled in a consecutive manner at Peptide I doses of 0.025, 0.05, 0.1 mg/kg, and […], respectively (single dose per cohort). […] As such, the study was terminated.

[6] = Phase 1 study in normal healthy volunteers: pharmacokinetics; type: in vivo, human
Source text: as §1, §2
In the 0.025 mg/kg dose group, Peptide I concentration peaked between 5 and 15 minutes, while tmax approached 1 hour for the 0.1 mg/kg dose.

[7] = Phase 1 study in normal healthy volunteers: safety; type: in vivo, human
Source text: as §1, §2

[8] = Pharmacokinetic studies in rats, dogs and monkeys (general statements); type: in vivo
[9] = target: T1, recombinant EPO-R produced in Chinese Hamster Ovary cells as a fusion protein to a portion of the human … (human, UniProt P19235 25-250); experiment: AlphaQuest bead proximity competition; competitor: biotinylated tracer peptide SEQ ID NO: 4 (30 nM) on streptavidin donor beads, EPO-R fusion on acceptor beads
T1 sequence (looked up): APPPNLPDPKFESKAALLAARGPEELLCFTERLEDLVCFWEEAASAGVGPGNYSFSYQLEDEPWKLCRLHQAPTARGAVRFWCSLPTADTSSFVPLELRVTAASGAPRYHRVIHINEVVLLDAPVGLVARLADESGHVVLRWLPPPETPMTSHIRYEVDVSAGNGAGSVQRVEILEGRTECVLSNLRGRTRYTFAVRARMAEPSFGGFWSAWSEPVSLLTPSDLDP

[10] = target: T2, Recombinant Human EPO R/Fc Chimera (human, UniProt P19235 25-250); experiment: radioligand competition; competitor: 125I-EPO; EPO R/Fc chimera 100 pg/tube, Protein-G Sepharose pull-down, gamma counting
T2 construct: extracellular domain; Bought: R&D Systems, catalog number 963-ER; also called recombinant EPOr extracellular domain fused to the Fc portion of human IgG1; recombinant erythropoietin receptor; not shown: Fc portion of human IgG1
T2 sequence (looked up): T1 sequence (looked up)

[11] = five-sixth nephrectomy rats, IV 9.87 mg/kg

Molecule: peptide dimer of SEQ ID NO: 3 monomers (AcG)GLYACHMGPIT(1-nal)VCQPLR(MeG) [Peptide III] (Ac-GGLYACHMGPIT[1Nal]VCQPLR[Sar]; disulfide 6-15 (inferred); not fully specified (residue 1); printed as (AcG)GLYACHMGPIT(1-nal)VCQPLR(MeG); also: homodimer, C-termini joined to the alpha- and epsilon-amino groups of a lysine linker, spacer and PEG on the linker)
EC90 ([1]; Table 2): 2.7 nM

Molecule: Peptide IV: peptide dimer of SEQ ID NO: 1 monomers (AcG)GLYACHMGPIT(1-nal)VCQPLRK (Ac-GGLYACHMGPIT[1Nal]VCQPLRK; disulfide 6-15 (inferred); not fully specified (residue 1); printed as (AcG)GLYACHMGPIT(1-nal)VCQPLRK; also: homodimer joined through a branched tertiary amide linker on the Lys20 side chain, PEG carried on the linker)
EC90 ([1]; Table 4): 6.2 nM

Molecule: peptide dimer of SEQ ID NO: 3 monomers (AcG)GLYACHMGPIT(1-nal)VCQPLR(MeG) [Peptide II] (Ac-GGLYACHMGPIT[1Nal]VCQPLR[Sar]; disulfide 6-15 (inferred); not fully specified (residue 1); printed as (AcG)GLYACHMGPIT(1-nal)VCQPLR(MeG); also: homodimer, C-termini joined to the alpha- and epsilon-amino groups of a lysine linker, spacer and PEG on the linker)
EC90 ([1]; Table 2): 2.2 nM

More lines, main results first:

EC90 ([1]; Table 6): 3 nM
Molecule: peptide dimer of SEQ ID NO: 2 monomers (AcG)GLYACHMGPIT(1-nal)VCQPLR(MeG)K; a fully synthetic EPO receptor agonist (Ac-GGLYACHMGPIT[1Nal]VCQPLR[Sar]K; disulfide 6-15 (inferred); not fully specified (residue 1); printed as (AcG)GLYACHMGPIT(1-nal)VCQPLR(MeG)K; also: homodimer joined through a branched tertiary amide linker on the Lys21 side chain, PEG carried on the linker) [Peptide I]
clearance [2, 11]: 0.763 mL/h/kg | t1/2 [2, 11]: approximately 48 hours | clearance ([2]; normocythemic rats): 1.44 mL/h/kg | Elimination half life (t1/2) ([2]; rats): 21.5 to 30.7 h | Elimination half life (t1/2) [3]: 73.7 h | rise in reticulocytes and RBCs as measured by hemoglobin levels ([4]; rats and monkeys): dose proportional | stimulation of erythropoiesis ([4]; single or repeat dose, mice, rats (normocythemic and nephrectomized), dogs, rabbits, monkeys): potent stimulator of erythropoiesis with dose-dependent activity | average hemoglobin levels at Day 42 ([5]; 0.1 mg/kg): returned to baseline | average maximum increase from baseline in hemoglobin ([5]; 0.1 mg/kg, 10 recipients): 1.36 ± 0.39 g/dL | difference in change from baseline hemoglobin versus placebo ([5]; 0.1 mg/kg, at Day 42 as throughout the study): ≥ 0.5 g/dL | time of maximum reticulocyte counts postdose ([5]; all dose cohorts): approximately 7 days | hemoglobin response and change from baseline (mean and maximum) ([5]; over 28 days post-dose): dose-dependent increases | Reticulocyte count (absolute number and percent) ([5]; single IV 0.025, 0.05, 0.1 mg/kg): dose-dependent increase | PAD associated with at least a 1.0 g/dL increase in hemoglobin ([5]; single IV dose, NHV): 0.1 mg/kg | Serum EPO levels ([5]; with increasing dose): transiently decreased | Plasma clearance, geometric mean ([6]; 0.025 mg/kg): 78.0 mL/h | Volume of distribution, mean ([6]; 0.025 mg/kg): 2165 mL | half-life, mean ([6]; 0.025 mg/kg): 19.2 h | half-life, range ([6]; 0.025 mg/kg): 16.7 to 21.9 h | plasma concentrations quantifiable (>25 ng/mL) up to ([6]; 0.025 mg/kg): up to 96 hours | Plasma clearance, geometric mean ([6]; 0.05 mg/kg): 70.7 mL/h | Volume of distribution, mean ([6]; 0.05 mg/kg): 1903 mL | half-life, mean ([6]; 0.05 mg/kg): 18.7 h | half-life, range ([6]; 0.05 mg/kg): 15.3 to 25.1 h | plasma concentrations quantifiable (>25 ng/mL) up to ([6]; 0.05 mg/kg): ≤ 5 days | Plasma clearance, geometric mean ([6]; 0.1 mg/kg): 59.2 mL/h | Volume of distribution, mean ([6]; 0.1 mg/kg): 2010 mL | half-life, mean ([6]; 0.1 mg/kg): 23.5 h | half-life, range ([6]; 0.1 mg/kg): 17.7 to 33.1 h | plasma concentrations quantifiable (>25 ng/mL) up to ([6]; 0.1 mg/kg): ≤ 7 days | tmax ([6]; 0.1 mg/kg): ~1 h | AUC(0-infinity) relationship with dose ([6]; dose normalized, ANOVA): non-linearity at the highest dose | Cmax relationship with dose ([6]; dose normalized, ANOVA): linear relationship with dose | plasma concentration at which metabolic/elimination processes saturate ([6]; human, in vivo): > 400 ng/mL | number of adverse events ([7]; Peptide I group): 22 | AEs considered probably not related to the study drug ([7]; Peptide I recipients): 15/22 | Serious Adverse Events or withdrawals due to an AE ([7]; human, in vivo): no Serious Adverse Events (SAEs) or withdrawals from the study due to an AE | changes in vital signs, ECGs or laboratory values ([7]; human, in vivo): no clinically significant changes | subjects who developed antibodies specific to Peptide I ([7]; human, in vivo): None | overall safety and tolerability ([7]; single IV doses of 0.025, 0.05 or 0.1 mg/kg): safe and well tolerated | abdominal pain ([7]; subjects dosed with Peptide I): 10.0% | headache ([7]; subjects dosed with Peptide I): 20.0% | nasopharyngitis ([7]; subjects dosed with Peptide I): 10.0% | nausea ([7]; subjects dosed with Peptide I): 10.0% | subjects who experienced adverse events ([7]; subjects receiving Peptide I): 11 of 20 | plasma persistence ([8]; in comparison to currently marketed rHuEPO products): sustained plasma persistence | Biodistribution ([8]; in vivo): primarily to the plasma fraction

IC50 [9]: 0.11 nM
B1: Peptide II (SEQ ID NO: 3) (peptide)
peptide: Ac-GGLYACHMGPIT[1Nal]VCQPLR[Sar]
modifications: disulfide 6-15; not fully specified (C-terminus); printed as (AcG)GLYACHMGPIT(1-nal)VCQPLR(MeG); also: homodimer of two monomers, C-termini joined to alpha- and epsilon-amino groups of a lysine linker with spacer and PEG

IC50 [10]: 111 nM
B2: Peptide I (SEQ ID NO: 2) (peptide)
peptide: Ac-GGLYACHMGPIT[1Nal]VCQPLR[Sar]K
modifications: disulfide 6-15; not fully specified (residue 21); printed as (AcG)GLYACHMGPIT(1-nal)VCQPLR(MeG)K; also: PEGylated homodimer, second copy joined via the branched linker on K21 epsilon-amine, linker, PEG size and linkage not given here
